Measurements reported in article PMC3458741, “Studies on the substrate specificity of a GDP-mannose pyrophosphorylase from Salmonella enterica” (Beilstein Journal of Organic Chemistry, 2012).

How the values were obtained:
Assay in all cases: purified protein
Details in all cases: co-substrate GTP
[1] = system: COC[C@H]1O[C@H](OP(=O)(O)O)[C@@H](O)[C@@H](O)[C@@H]1O
From the text: (§1) colorimetric pyrophosphate detection assay on GDP-mannose pyrophosphorylase (GDP-ManPP)

[2] = system: CO[C@@H]1[C@@H](OP(=O)(O)O)O[C@H](CO)[C@@H](O)[C@@H]1O
From the text: as §1

[3] = system: CO[C@@H]1[C@H](O)[C@@H](OP(=O)(O)O)O[C@H](CO)[C@H]1O
From the text: as §1

[4] = system: C[C@H]1O[C@H](OP(=O)(O)O)[C@@H](O)[C@@H](O)[C@@H]1O
From the text: as §1

[5] = system: O=P(O)(O)O[C@H]1O[C@H](CO)[C@@H](O)[C@H](O)[C@@H]1O
From the text: as §1

[6] = system: CO[C@H]1[C@H](O)[C@H](O)[C@@H](OP(=O)(O)O)O[C@@H]1CO
From the text: as §1

GDP-mannose pyrophosphorylase (GDP-ManPP) (Salmonella enterica subsp. enterica serovar Typhimurium str. LT2)
Km [1]: 120 ± 18 µM | kcat [1]: 0.45 ± 0.0167 s⁻¹ | kcat/Km [1]: 3830 ± 1000 M⁻¹ s⁻¹ | Km [2]: 4 ± 1.1 mM | kcat [2]: 1.17 ± 0.183 s⁻¹ | kcat/Km [2]: 333 ± 167 M⁻¹ s⁻¹ | Km [3]: 200 ± 72 µM | kcat [3]: 0.0867 ± 0.0117 s⁻¹ | kcat/Km [3]: 433 ± 16.7 M⁻¹ s⁻¹ | Km [4]: 70 ± 13 µM | kcat [4]: 5 ± 0.217 s⁻¹ | kcat/Km [4]: 66700 ± 16700 M⁻¹ s⁻¹ | Km [5]: 40 ± 6 µM | kcat [5]: 6 ± 0.267 s⁻¹ | kcat/Km [5]: 150000 ± 50000 M⁻¹ s⁻¹ | Km [6]: 3.4 ± 0.87 mM | kcat [6]: 0.517 ± 0.0783 s⁻¹ | kcat/Km [6]: 150 ± 83.3 M⁻¹ s⁻¹
